Literature values, collected in PMC3490216.

Key:
VPAC1 receptor = VPAC1 receptor (UniProt P32241)
VPAC2 receptor = VPAC2 receptor (UniProt P41587)
Sequence of UniProt P41587 (P41587 24-438): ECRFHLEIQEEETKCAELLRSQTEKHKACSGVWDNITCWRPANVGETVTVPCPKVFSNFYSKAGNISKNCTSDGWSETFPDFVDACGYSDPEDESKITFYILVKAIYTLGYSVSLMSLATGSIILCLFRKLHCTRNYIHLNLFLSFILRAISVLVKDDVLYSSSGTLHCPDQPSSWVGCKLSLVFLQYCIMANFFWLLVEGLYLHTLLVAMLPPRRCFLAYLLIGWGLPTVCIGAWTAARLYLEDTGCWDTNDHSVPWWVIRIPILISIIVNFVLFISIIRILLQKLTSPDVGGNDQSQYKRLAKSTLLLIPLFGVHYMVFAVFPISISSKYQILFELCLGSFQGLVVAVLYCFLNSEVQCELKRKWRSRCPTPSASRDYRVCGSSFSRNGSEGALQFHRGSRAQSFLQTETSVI

Sequence of UniProt P32241 (P32241 31-457): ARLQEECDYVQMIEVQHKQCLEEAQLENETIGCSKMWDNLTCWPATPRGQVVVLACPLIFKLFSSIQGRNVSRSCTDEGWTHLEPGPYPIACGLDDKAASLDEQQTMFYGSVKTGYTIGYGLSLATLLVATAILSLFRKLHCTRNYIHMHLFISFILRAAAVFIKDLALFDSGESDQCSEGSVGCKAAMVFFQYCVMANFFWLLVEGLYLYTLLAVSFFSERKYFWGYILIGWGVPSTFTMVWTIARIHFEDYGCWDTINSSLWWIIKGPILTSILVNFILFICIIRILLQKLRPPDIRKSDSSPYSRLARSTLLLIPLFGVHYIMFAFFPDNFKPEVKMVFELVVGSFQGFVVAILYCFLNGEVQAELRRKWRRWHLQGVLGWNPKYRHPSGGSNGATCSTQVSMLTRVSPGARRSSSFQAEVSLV

Kd (VPAC1 receptor): 3 nM | Kd (VPAC2 receptor): 3 nM
Substance: VIP (from UniProt P01282)
